Laboratory results published in patent US20220133732A1 (Bicycle, published 2022).
*1 amine or outer side, *2 acyl side, *3 side chain or, on linkers, in order; H or OH if unused. Bridges are numbered along the chain shown (N, C = ends). Where no end group is shown, it is not given here. TBMB = c1c(C[*:1])cc(C[*:3])cc1C[*:2]

Tests used:
[1] = molecular target: T1, human carbonic anhydrase IX (CAIX) (human, UniProt Q16790 38-414); experiment: cell-based or functional assay
[2] = molecular target: T1, human carbonic anhydrase IX (CAIX); experiment: competition fluorescence polarisation, tracer A-(SEQ ID NO:1)-A-Sar6-K(FI)
[3] = molecular target: T1, human carbonic anhydrase IX (CAIX); experiment: competition fluorescence polarisation, tracer A-(SEQ ID NO:1)-A-Sar6-K(FI); n = 1

Enzyme IC50 [1]	Ki [2]	Ki [3]	Binder
815 nM	7.13 nM		ACTECWVDGWVPCA (linker 2-5-13 via TBMB, Bicyclic peptide on TBMB scaffold) [61-01-02-N001]
855 nM	5.77 nM		ACLECWVDGWVPCA (linker 2-5-13 via TBMB, Bicyclic peptide on TBMB scaffold) [61-01-04-N001]
	7.9 nM		ACTECWIDGWVPCA (linker 2-5-13 via TBMB, Bicyclic peptide on TBMB scaffold) [61-01-07-N001]
		12.2 nM	ACEECWVDGWVPCA (linker 2-5-13 via TBMB, Bicyclic peptide on TBMB scaffold) [61-01-05-N001]
		312 nM	ACWWCEDITGRPCA (linker 2-5-13 via TBMB, Bicyclic peptide on TBMB scaffold) [61-18-N001]
	81.5 nM		ACGECWADGWVPCA (linker 2-5-13 via TBMB, Bicyclic peptide on TBMB scaffold) [61-01-01-N001]
	22.7 nM		ACSECWVDGWVSCA (linker 2-5-13 via TBMB, Bicyclic peptide on TBMB scaffold) [61-01-03-N001]
		39.8 nM	ACGECWVDGWVSCA (linker 2-5-13 via TBMB, Bicyclic peptide on TBMB scaffold) [61-01-09-N001]
		5.6 nM	ACRECWVDGWVECA (linker 2-5-13 via TBMB, Bicyclic peptide on TBMB scaffold) [61-01-08-N001]
